The text below walks through data of article PMC8551160, “Structure of PDE3A–SLFN12 complex and structure-based design for a potent apoptosis inducer of tumor cells” (Nature Communications, 2021).

This data set deals with the molecule itself. The data set can be described thus: cryo-EM structure; PDE3A-SLFN12 (K213R) complex purified from nauclefine-treated HeLa cells; single-particle, C2 symmetry, 3.2 Å.

B1: phosphodiesterase 3A (PDE3A), endogenous (enzyme, human (endogenous in HeLa), UniProt Q14432 1-1141, looked up)
chain: MAVPGDAARVRDKPVHSGVSQAPTAGRDCHHRADPASPRDSGCRGCWGDLVLQPLRSSRKLSSALCAGSLSFLLALLVRLVRGEVGCDLEQCKEAAAAEEEEAAPGAEGGVFPGPRGGAPGGGARLSPWLQPSALLFSLLCAFFWMGLYLLRAGVRLPLAVALLAACCGGEALVQIGLGVGEDHLLSLPAAGVVLSCLAAATWLVLRLRLGVLMIALTSAVRTVSLISLERFKVAWRPYLAYLAGVLGILLARYVEQILPQSAEAAPREHLGSQLIAGTKEDIPVFKRRRRSSSVVSAEMSGCSSKSHRRTSLPCIPREQLMGHSEWDHKRGPRGSQSSGTSITVDIAVMGEAHGLITDLLADPSLPPNVCTSLRAVSNLLSTQLTFQAIHKPRVNPVTSLSENYTCSDSEESSEKDKLAIPKRLRRSLPPGLLRRVSSTWTTTTSATGLPTLEPAPVRRDRSTSIKLQEAPSSSPDSWNNPVMMTLTKSRSFTSSYAISAANHVKAKKQSRPGALAKISPLSSPCSSPLQGTPASSLVSKISAVQFPESADTTAKQSLGSHRALTYTQSAPDLSPQILTPPVICSSCGRPYSQGNPADEPLERSGVATRTPSRTDDTAQVTSDYETNNNSDSSDIVQNEDETECLREPLRKASACSTYAPETMMFLDKPILAPEPLVMDNLDSIMEQLNTWNFPIFDLVENIGRKCGRILSQVSYRLFEDMGLFEAFKIPIREFMNYFHALEIGYRDIPYHNRIHATDVLHAVWYLTTQPIPGLSTVINDHGSTSDSDSDSGFTHGHMGYVFSKTYNVTDDKYGCLSGNIPALELMALYVAAAMHDYDHPGRTNAFLVATSAPQAVLYNDRSVLENHHAAAAWNLFMSRPEYNFLINLDHVEFKHFRFLVIEAILATDLKKHFDFVAKFNGKVNDDVGIDWTNENDRLLVCQMCIKLADINGPAKCKELHLQWTDGIVNEFYEQGDEEASLGLPISPFMDRSAPQLANLQESFISHIVGPLCNSYDSAGLMPGKWVEDSDESGDTDDPEEEEEEAPAPNEEETCENNESPKKKTFKRRKIYCQITQHLLQNHKMWKKVIEEEQRLAGIENQSLDQTPQSHSSEQIQAIKEEEEEKGKPRGEEIPTQKPDQ
notes: PDE3A, human, endogenous in HeLa cells; appeared as its full length in the purification; only the catalytic domain K669-Q1102 is resolved in the cryo-EM maps; the purified band is called full length; It is a homodimer in the complex structures; source: endogenous, HeLa; in lysate (co-IP); co-purified with tagged SLFN12 by Flag-HA tandem pull-down (cryo-EM)
With B1, the stoichiometry N (commonly a count of units in the complex or per binding partner) turned out to be 2.
